Experiment [1] addresses T1, TFECDHis (extracellular domain of tissue factor, amino acid 1-251, with C-terminal His tag) (human, UniProt P13726 33-251).
T1 construct: range 1-251; The stated range 1-251 starts at residue 1 of NP-001984; also called extracellular domain of TF
Description: ELISA, Fab fragment on coated extracellular domain of TF. The procedure:
The specificity of the obtained anti-TF HuMabs was evaluated by ELISA. ELISA plates (Microlon; Greiner Bio-One) were coated overnight at +4° C. with 0.5 μg/mL of TFECDHis in PBS, pH 7.4. Coated ELISA plates were emptied and blocked for one hour at room temperature with 2% (v/v) chicken serum (Gibco, Paisley, Scotland) in PBS and washed with PBS containing 0.05% Tween 20 (PBST). Subsequently, HuMabs, serially diluted in PBSTC (PBS supplemented with 2% (v/v) chicken serum and 0.05% (v/v) Tween-20), were incubated for 1 hr at RT under shaking conditions (300 rpm). Bound HuMabs were detected using HRP-conjugated goat-anti-human IgG antibodies (Jackson ImmunoResearch) diluted 1:5,000 in PBSTC, which were incubated for 1 hr at RT under shaking conditions (300 rpm). […] HuMab-KLH (a human monoclonal antibody against KLH (keyhole limpet haemocyanin)), was used as a negative control. Mouse anti-human TF (ERL) was used as positive control (HRP labeled anti-mouse IgG as conjugate). Binding curves were analyzed using non-linear regression (sigmoidal dose-response with variable slope) using GraphPad Prism V4.03 software.
(§1) Binding of Fab fragments of anti-TF HuMabs to TF was measured by ELISA (coated extracellular domain of TF) and by FACS (TF on BxPC3 cells). ELISA was performed essentially as described supra. Bound Fab fragments were detected using HRP-conjugated donkey-anti human H+L. FACS analysis was performed essentially as described supra. FITC-conjugated goat anti-human IgG (H+L) (Jackson) was used to detect bound lead candidates. Fluorescence was measured on a FACSCantoII. Binding curves were analyzed as described supra, using GraphPad Prism 5 software.

The target in experiment [2] is T2, human tissue factor (TF), membrane-bound on cells (human, UniProt P13726 33-295).
T2 construct: whole, on cells; also called cellular TF
Description: FACS, Fab fragment on BxPC3 cells. On the procedure:
(§2) Cells were resuspended in PBS (2×10⁶ cells/ml), put in 96-well V-bottom plates (50 μl/well). 50 μl of serially diluted HuMab in FACS buffer (PBS supplemented with 0.1% BSA and 0.02% Na-azide) was added to the cells and incubated for 30 minutes on ice. After washing three times with FACS buffer, 50 μl of phycoerythrin (PE)-conjugated goat anti-human IgGFc (Jackson ImmunoResearch), diluted 1:100 in FACS buffer, was added. After 30 minutes on ice (in the dark), cells were washed three times, and specific binding of the HuMabs was detected by flow cytometry on a FACSCalibur (BD Biosciences). HuMab-KLH was used as a negative control. Mouse anti-TF followed by PE-conjugated anti-mouse IgGFc was used as positive control. Binding curves were analyzed using non-linear regression (sigmoidal dose-response with variable slope) using GraphPad Prism V4.03 software (GraphPad Software, San Diego, Calif., USA).
as §1

The target of experiment [3] is T3, murine tissue factor (TF) on transfected HEK293F cells (murine, UniProt P20352 29-294).
T3 construct: whole, on cells; also called murine TF; TFmm
T3 sequence (looked up): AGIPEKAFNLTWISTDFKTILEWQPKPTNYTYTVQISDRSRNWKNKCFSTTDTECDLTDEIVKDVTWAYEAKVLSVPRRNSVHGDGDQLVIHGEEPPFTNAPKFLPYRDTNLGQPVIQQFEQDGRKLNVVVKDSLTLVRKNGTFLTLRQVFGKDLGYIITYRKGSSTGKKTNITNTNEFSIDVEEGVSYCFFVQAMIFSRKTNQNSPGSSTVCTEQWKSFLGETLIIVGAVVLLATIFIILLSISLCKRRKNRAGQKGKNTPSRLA
Nature of the experiment: FACS on transfected HEK293F cells, 30 µg/mL antibody [Figure 18; no figure label on the sheet]. The procedure:
as §2
To determine domains important for binding of anti-TF HuMabs to human TF, DNA shuffling was performed between human and murine TF. Shuffle constructs were prepared from DNA encoding human TF, by replacing human domains with murine domains and from DNA encoding murine TF by replacing murine domains with human domains.

Substitutions are numbered along the chain they refer to.

We go through seven molecules from patent US20110300156A1 (Genmab, published 2011).

B1: HuMab-TF-109 Fab fragment (Fab, V domains shown)
VH: QVQLVESGGGVVQPGRSLRLSCPASGFTFSIYAMHWVRQAPGKGLEWVAVVSNDGYNKYYADSVKGRFTISRDNSKDTLYLQMNSLRAEDTAVYYCARDGQLGRGYFDYWGQGTLVTVSS
VL: EIVLTQSPATLSLSPGERAILSCRASQSVSSYLAWYQQKPGQAPRLLIYDASNRATGIPARFSGSGSGTDFTLTISSLEPEDFAVYYCQQRSNWPLTFGGGTKVEIK
notes: Fab fragment of the HuMab; VH and VL as for the parent antibody
B1: the values for the EC50 in experiment [1] and in experiment [2] were 0.02 µg/mL and 0.143 µg/mL, respectively.

B2: HuMab-TF-111 Fab fragment (Fab, V domains shown)
VH: QVQLVESGGGVVQPGRSLRLSCAGSGFTFNRYAMYWVRQAPGKGLDWVAVISNDGINKYYADSVKGRFTISRDNSKNTLYLQMNSLRAEDTAVYYCARDHTMVRGAFDYWGQGTLVTVSS
VL: B1 VL with I20T
notes: as for B1
Consider B2, for which a half-maximal response in experiment [1] (EC50) required 3.14 µg/mL.

B3: HuMab-TF-011 Fab fragment (Fab, V domains shown)
VH: EVQLLESGGGLVQPGGSLRLSCAASGFTFSNYAMSWVRQAPGKGLEWVSSISGSGDYTYYTDSVKGRFTISRDNSKNTLYLQMNSLRAEDTAVYYCARSPWGYYLDSWGQGTLVTVSS
VL: DIQMTQSPPSLSASAGDRVTITCRASQGISSRLAWYQQKPEKAPKSLIYAASSLQSGVPSRFSGSGSGTDFTLTISSLQPEDFATYYCQQYNSYPYTFGQGTKLEIK
notes: Fab fragment of the HuMab; VH and VL as for the parent antibody; also called -011 Fab fragments
With B3, the EC50 amounted to 0.04 µg/mL in experiment [1] and 0.132 µg/mL in experiment [2].

B4: HuMab-TF-013 Fab fragment (Fab, V domains shown)
VH: EVQLVQSGAEVKKPGESLKISCKGSGYSFTSYWIGWVRQMPGKGLEWMGIIYPGDSDTRYSPSFQGQVTISADKSISTAYLQWSSLKASDTAMYYCARIHRGAGYSSSWPGAFDIWGQGTMVTVSS
VL: B3 VL with P9S, A15V, S31R, R32W, N92D, Y94D, Y96I, K103R
notes: as for B1
As to B4, the EC50 amounted to 0.03 µg/mL in experiment [1] and 0.301 µg/mL in experiment [2].

B5: HuMab-TF-098 Fab fragment (Fab, V domains shown)
VH: QVQLVQSGAEVRKPGSSVKVSCKASGGSFNNYPIFWVRQAPGQGFEWMGRIIPILGITAYAQKFQGRVTITADKSTSTAYMELNSLRSEDTAVYYCAGGDDLDAFDIWGQGTMVSVSS
VL: B3 VL with P9S, A15V, R32W
notes: as for B1
B5 showed an EC50 in experiment [1] of 1.98 µg/mL.

B6: anti-TF HuMab 017-D12 (antibody, V domains shown)
VH: EVQLLESGGGLVQPGGSLRLSCAASGFTFSSYAMSWVRQAPGKGLEWVSAISGSGDSTNYADSVKGRFTISRDNSKNTLYLQMNSLRAEDTAVYYCAKDGYFLLWYFDLWGRGTLVTVSS
VL: not shown
notes: Human monoclonal antibody from HuMab mice
For B6, in experiment [3], the binding result is “no binding (tested: 30 µg/mL)”.

B7: HuMab-TF-044 Fab fragment (Fab, V domains shown)
VH: QVQLVESGGGVVQPGRSLRLSCAASGFTFSDYAMHWVRQAPGKGLEWVAVIPYDGDNKYYADSVKGRFTISRDNSKNTLYLQMNSLRAEDTAVYYCAREDWGLEVDYWGQGALVTVSS
VL: AIQLTQSPSSLSASVGDRVTITCRASQGINSALAWYQQKPGKAPKLLIYDASSLESGVPSRFSGSGSGTDFTLTISSLQPEDFATYYCQQFNSYPLTFGGGTKVEIK
notes: as for B1
For the molecule B7, the EC50 in experiment [1] worked out at 0.59 µg/mL; in experiment [2] it was 8.04 µg/mL.
